The test system of the series is Saccharomyces cerevisiae. As to the kind of experiment: transcriptional activation domain activity (GFP:mCherry ratio, weighted mean of sorted bins, harmonized to initial dataset scale) (arbitrary fluorescence ratio units); higher = stronger transcriptional activation. The following applies: beta-estradiol 1 µM; induction time 4 h. How it is done:
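53-aa protein tiles (fungal proteins plus yeast TF control tiles) fused C-terminally to a DBD-estrogen-binding domain-mCherry synthetic TF, integrated in S. cerevisiae (URA3 locus) with a GFP reporter. Cells were induced with 1 uM beta-estradiol for 4 h at 30 C, FACS-sorted into 8 bins by GFP:mCherry ratio and barcodes sequenced. Activity is the read-weighted mean bin fluorescence (GFP:mCherry), averaged over barcodes (median 12); tiles under 50 reads were discarded. New active-learning values were harmonized by linear fit onto the scale of the initial (Hummel et al.) dataset. The assay saturates at low and high signal.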

As for “AANKNAKRREARKKAAAAAGEGNEEDKGASAETKEDKSAEVKEKENVKPASEK”, the “transcriptional activation domain activity” value worked out at 29600. For “AAPAAAAAQAAAPVSPAVKAETPVEAPKTIPAAAAPAPAPAKTEAAPAAEPVA”, the “transcriptional activation domain activity” value came out at 27500. With “AAPAAADPTPKKRGRPPRVSGAAEVAAAPEPAAEQPKKGRGRKAAEPAPEPVV”, the “transcriptional activation domain activity” value was found to be 23100.

“AAPAAPADDGFQSVPGRNRGQREGGGNYRSRGGYRGEGRGRGGYRGEGRGRGR”: the “transcriptional activation domain activity” value is 37000. For “AAPAASKAAPAAASPEKKEKAKPGKKEREAAKAAAAAAPPKASASSSSAPEQA”, the “transcriptional activation domain activity” value turned out to be 18300. The value for “AAPAPAKRTAAAAGLEEAAASGELSKSQKKKLNKKLKGENGEAAAAPVAAAPS” was 30900; that for “AAPKAKATTAKAKATTTKKATTAKASTTKKAAAAKPKANASKPRKAAAATAAA” was 38600.

With “AAPSKPASPTKAAAPVSKPVTPAPQKAAPVQQQSKPATPAPQQKAATPAPKTA”, the “transcriptional activation domain activity” value was determined as 29500. Regarding “AAPTETAPPAAEPAPVAAPIETKAAEPAAPVTEAPATTATEEVKPAVEPAKTE”, the “transcriptional activation domain activity” value was determined as 49400. As for “AAPVAEAAPATEAAPASEPSTEAEVPKEEKTEDKKEEKAPKSPKIGRRLSSRV”, the “transcriptional activation domain activity” value came out at 17000. “AAPVKKEEPKKEETPKAAEETATAPVAETPAVAAAAATEAPKEEAKEEPKRRS”: the “transcriptional activation domain activity” value stood at 35400. “AAPVVAKKDDKKDKKKEEKKGEKEEKKPADEKKGGDKPKKEKKKAEKKPAAAP”: the “transcriptional activation domain activity” value was 22200. Turning to “AAQAPANDGFSEVQHNRGGRGRGGQDQGEGRGGYRGRGRGGRGGGEFRGRGRG”, the “transcriptional activation domain activity” value stood at 55800.

With “AAQKFVSDIAADAYQYARVRTNATTGGRSKAEKNAQGGSSAAAKDKSKTVLTL”, the “transcriptional activation domain activity” value was 29700. Take “AAQRSVMLGHNLVTLEDILMTQRKWRAVLHETFYVRWIAVLRRWLCRLLDWPV”: the “transcriptional activation domain activity” value came out at 42900. To “AARVSDYSMAQFRFLLKFLLVHGRWNYVRICKYTVGTFWKELLFYLTQALFQR” belongs 48200; to “AASAASEPAPKKRGRPARAKEEVVAAEPEPAVEQPKKGRGRGRKAAEPEPVAV”, 18700; to “AASAEDAVVGEKHKAEEPLDTNGDAKKAKVTNGNGEARKPGRPSKKDKKPQPT”, 23100. “AASAPAASSPSASAPADEAAENGEEAASSSKNKKKKKKGAAGGAAPAAGGKKP”: the “transcriptional activation domain activity” value is 40700. As for “AASETTAKKSRGRKRKTVPEPDCDDEDNTGAARCSQPRSRKRARTTAPAEPRE”, the “transcriptional activation domain activity” value turned out to be 12200. Regarding “AASFISRTMLVLARQKFYNWYGVPQRRLYRDQSVHGTTKKRTWLIKLLSPLLF”, the “transcriptional activation domain activity” value stood at 47200. Turning to “AASKKERQSESHASSKRARSSKNGRGADADSSDEEEAGRSSSRKSRRTSTGDR”, the “transcriptional activation domain activity” value was 30200. To “AASPEEVIAPKSKRQPRRNTQAVSADPASLTPPADTKPKRSRAPRKAKVTIAE” belongs 13300. The value for “AASQNVDAQPKPKPAQDNDLESESGTSSSSSSSSESGSESDSGSDDGSASGSG” was under 6570; that for “AASWILLGFFIKQLYEEFGWAIFHVVGANPKMKTMYQWYQIMICLLKFDFFFF” was 48500; that for “AATAEPEKKKGSKKDKAAAAPAPAAAPAKDAKSAKKAKKSAAPPPPPPAASSS” was 15600.

Take “AATNKYDATIQRMLSRSVFVTCNSWYRVGGTGKNTSIFPGPGMLFWWWTRQAR”: the “transcriptional activation domain activity” value worked out at 61100. Consider “AATSEATTVFWHDPSGFVDRLLGLTRFWFFTLLRYSYRVYFLASRERSRKPLS”, for which the “transcriptional activation domain activity” value stood at 66100.

Take “AATTAEPERKKSSKDRKSPEIVSEAKKSKDSPGEVKRSSSKREKEKEKEKSSS”: the “transcriptional activation domain activity” value worked out at 37300. With “AATTDGEASANEGALVPAGEGAAEGEAKKPRQRKPRVARPPRPAGEEPTGEPS”, the “transcriptional activation domain activity” value was determined as 45500.

Take “ACAVLLSVVDGLTPLSIICASCSTTGAYWFCCFSMRFFVFIDLLGTLLLYLII”: the “transcriptional activation domain activity” value is 74900.

Take “ACFLGYPIQIDPTFTDFELLSSFSGVIDSCAQSDTLWDFNSFDVAAVLSPLLD”: the “transcriptional activation domain activity” value was found to be 143000. Consider “ACIVFWMGSWVYKYQLMFVFVSKVESGGRVWNVVINRLLFCVVLMQCLMILTI”, for which the “transcriptional activation domain activity” value was found to be 73700.

“ACLFTMELILHNIYAVAIRSAGSPVWSSFTPFELSMFGFWNLIIVWMKLLLPW”: the “transcriptional activation domain activity” value amounted to 54700. In the case of “ACSCLSLITIFVGSGVVFQWFVSLIGSVLFQSWILILLLHFRFRYCWRKQGRP”, the “transcriptional activation domain activity” value was found to be 49200. Take “ACVALVVLFADSLDDLIPGWGIVAWKIVCGFILVPLGFLPLRLLSFTSILGVM”: the “transcriptional activation domain activity” value was 58500.

With “ADAAGEPAQANGESKSAKRRKQKKAAAAAKAAGATNADGTPAAAAEKPARAQR”, the “transcriptional activation domain activity” value was 17100. The value for “ADADAGKEAEGGAGGKRCKGCGKGEGEGEEGGLRRCARCKVVVYCGRECQKRD” was 36700. As to “ADAGGKDKGEKVAGDAEGAPAEGKAEVKGEARAETAVEGAEQQSNGKKRKAAS”, the “transcriptional activation domain activity” value turned out to be 34200. The value for “ADALSARSPKKGKKGKKGKKGKKGKKGKKAGAAAAAAGGAAGANGAKAAGAKA” was 33300. Take “ADANGGGLKAGGRVTIAIVRQAILEATSSPLQVYLKTCPLASKVFLVALLVRC”: the “transcriptional activation domain activity” value was found to be 58100. Consider “ADASKWWLLGDSFEADVLTFVSLFQFVNSALIFNYGYIFRQAWYRNYLLVSVW”, for which the “transcriptional activation domain activity” value turned out to be 56700. As for “ADASSSRPQQSKGDKGRSRAPGADRKQESSSSSARASGTGGNNTNGGSSSNNN”, the “transcriptional activation domain activity” value was 34100. “ADCAVIGVNSEEEATELPRAYVVHAKGIPPSEQAAFGVSVQEWVKSRVARHKQ”: the “transcriptional activation domain activity” value amounted to 80600. In the case of “ADCAVIGVVSEEEATELPRAYVVHAKGIPPSEHEAFGVSVQEWIKSRVARHKQ”, the “transcriptional activation domain activity” value was 53600. As to “ADDVGKWGAGLPGSAAVGGAGGGEEEEGKEKKAGGGMAARVLISEVSIKLLVP”, the “transcriptional activation domain activity” value worked out at 33800. For “ADEEDADEEDADEEDAGEKDAGEKDAGEEGAGEEDAGEEDASAIDAAACRMVQ”, the “transcriptional activation domain activity” value was 29800.

On to “ADEEDLSSKPRCQRCRKSKKGCDRQRPCGRCKDAGIGIEGCVSEDEGNGRKGR”, for which the “transcriptional activation domain activity” value was under 6570. Consider “ADEEGEGEAEEKPKRKRATKKKVEEEDDEEEEEEEKPKPKARAKAGSSKKAAT”, for which the “transcriptional activation domain activity” value turned out to be 21100.

In the case of “ADEEPTSSLYRSNAKEVSRITTGSCSEIKNKLAGMQLGHNKQVSICSSGLCVP”, the “transcriptional activation domain activity” value was 72000.

“ADEYIFHLTHGTLCICEHQGEENVVVVNVKSIISVVAMVPFPFIVRGCNNQYF”: the “transcriptional activation domain activity” value was 32600.

For “ADGEEEEEEGEAAGGSERPGIWGQALMELGSTVCTPKPKCVECPVTATCRAYQ”, the “transcriptional activation domain activity” value came to 55800.

With “ADIHDVVYYGTFTGIFPKLHWWIQKTLHLLKPFGLLSSRQVLVHFMLFHAEQR”, the “transcriptional activation domain activity” value came to 83800.

As to “ADIICMIYLIVNYTLLVFVSEVPYHQRARICLRLFCSCNFVTNFYATSAIVYR”, the “transcriptional activation domain activity” value amounted to 51100.

As for “ADKKAKKAAPPPKPESSSSSDSSESDSDAPKAAATVKAAAAAVKKAGKKAVAS”, the “transcriptional activation domain activity” value is 60900. As to “ADMILGFFFKNFVWTFILFWYQLFCQFNGTMVFDYSLVTLYNLVFTSLPIAFL”, the “transcriptional activation domain activity” value is 65600. Turning to “ADNNDDEDQDEEEATPAPKPRGGRAPKAAAAATKKSAAAKKAPATRGRKKIIE”, the “transcriptional activation domain activity” value turned out to be 33500. Consider “ADPNGAAAATTAAAPEKKAEEPVTPAKSSAAPASTSSTPASTNTTEKKKKNRL”, for which the “transcriptional activation domain activity” value was determined as 34700. As to “ADRLIRILRILMFNWKFWNTGCFATYDPNSNLVRLEIPCSRDLLGTKPGTYYY”, the “transcriptional activation domain activity” value is 50200. Regarding “ADRTSRRRDDRSRSRDRGSSRRDSDRHRHHSRRSSRAERTKKEESQGNGTVPD”, the “transcriptional activation domain activity” value was determined as 17800. As to “ADSARGGDADAKYRDRDRQRQTETETDRQTKTERDTQRQRQRHRHTHTHSPVQ”, the “transcriptional activation domain activity” value amounted to 37200. Consider “ADSDRHKKHKSSSSSSKSRHHDRDDDRDDNDKHSRRSHHKSSSSRHDRDRERG”, for which the “transcriptional activation domain activity” value was 46300.

In the case of “ADSGDEYVQDRRDGPAKGGKAPRREKDGRDEEGGRKKAAKKRKRKVQAQPEID”, the “transcriptional activation domain activity” value worked out at 30100. “ADSKTRNKRDGSNSTTSRSRSSRSRGEAVDDDGSSSSKRSSRSSRTDEGGAAR”: the “transcriptional activation domain activity” value turned out to be 41400.

For “ADSRRKTRRVRKRKSSRRHQEEGEEEESESEEEEADARKRRKKEKGGGKDKKK”, the “transcriptional activation domain activity” value came out at 23600.

“ADTILITMVGIFDLIACFFTCIVQVLRFKMGISVQEILIWCWFDLLIFSTSTF”: the “transcriptional activation domain activity” value came to 34300. For “AEAEKMDVDPAVSTAETEVKQESPAPAAATSVSTPEVKVTPSSAHPSLPAKPL”, the “transcriptional activation domain activity” value was found to be 18400. Take “AEAGTSKTAAKAEATPVEGTSAPVEGKAQKKEKKEKKPPAEEAGAGKKKGGAA”: the “transcriptional activation domain activity” value is 16100. As for “AEAQEGRKKDAAAAAEKKEEESPKKEEESAAGEEKQAAPKKKPKKLERRGGAA”, the “transcriptional activation domain activity” value stood at 41300. For the sequence “AEDADADGRTQRQGKGAGASSGSERRTHKARSRKSAKLDSKEKDGEKDKEWKG”, the “transcriptional activation domain activity” value stood at 23600.

With “AEDKARKEAEDKAREEAEEKAREEQEEAARARADAEAKKAALEAKREAEAKAK”, the “transcriptional activation domain activity” value was found to be 16300.

These data come from the supplement of paper PMC12636428.
